Laboratory results reported in the supplement of paper PMC12458215.
± gives the uncertainty stated by the source.

Each sequence was assayed on HEK293T (assay: plasma membrane surface immunostaining intensity (anti-HA, deep receptor scanning) (arbitrary fluorescence units); higher = higher plasma membrane expression). Conditions: GPCR class: A.

Sequence	plasma membrane surface immunostaining intensity
MESSFSFGVILAVLASLIIATNTLVAVAVLLLIHKNDGVSLCFTLNLAVADTLIGVAISGLLTDQLSSPSRPTQKTLCSLRMAFVTSSAAASVLTVMLITFDRYLAIKQPFRYLKIMSGFVAGACIAGLWLVSYLIGFLPLGIPMFQQTAYKGQCSFFAVFHPHFVLTLSCVGFFPAMLLFVFFYCDMLKIASMHSQQIRKMEHAGAMAGGYRSPRTPSDFKALRTVSVLIGSFALSWTPFLITGIVQVACQECHLYLVLERYLWLLGVGNSLLNPLIYAYWQKEVRLQLYHMALGVKKVLTSFLLFLSARNCGPERPRESSCHIVTISSSEFDG [GPR119]	702 ± 99
MESSGNPESTTFFYYDLQSQPCENQAWVFATLATTVLYCLVFLLSLVGNSLVLWVLVKYESLESLTNIFILNLCLSDLVFACLLPVWISPYHWGWVLGDFLCKLLNMIFSISLYSSIFFLTIMTIHRYLSVVSPLSTLRVPTLRCRVLVTMAVWVASILSSILDTIFHKVLSSGCDYSELTWYLTSVYQHNLFFLLSLGIILFCYVEILRTLFRSRSKRRHRTVKLIFAIVVAYFLSWGPYNFTLFLQTLFRTQIIRSCEAKQQLEYALLICRNLAFSHCCFNPVLYVFVGVKFRTHLKHVLRQFWFCRLQAPSPASIPHSPGAFAYEGASFY [XCR1]	190 ± 16
METNFSIPLNETEEVLPEPAGHTVLWIFSLLVHGVTFVFGVLGNGLVIWVAGFRMTRTVNTICYLNLALADFSFSAILPFRMVSVAMREKWPFGSFLCKLVHVMIDINLFVSVYLITIIALDRCICVLHPAWAQNHRTMSLAKRVMTGLWIFTIVLTLPNFIFWTTISTTNGDTYCIFNFAFWGDTAVERLNVFITMAKVFLILHFIIGFSVPMSIITVCYGIIAAKIHRNHMIKSSRPLRVFAAVVASFFICWFPYELIGILMAVWLKEMLLNGKYKIILVLINPTSSLAFFNSCLNPILYVFMGRNFQERLIRSLPTSLERALTEVPDSAQTSNTDTTSASPPEETELQAM [FPR3]	6430 ± 58
METNFSTPLNEYEEVSYESAGYTVLRILPLVVLGVTFVLGVLGNGLVIWVAGFRMTRTVTTICYLNLALADFSFTATLPFLIVSMAMGEKWPFGWFLCKLIHIVVDINLFGSVFLIGFIALDRCICVLHPVWAQNHRTVSLAMKVIVGPWILALVLTLPVFLFLTTVTIPNGDTYCTFNFASWGGTPEERLKVAITMLTARGIIRFVIGFSLPMSIVAICYGLIAAKIHKKGMIKSSRPLRVLTAVVASFFICWFPFQLVALLGTVWLKEMLFYGKYKIIDILVNPTSSLAFFNSCLNPMLYVFVGQDFRERLIHSLPTSLERALSEDSAPTNDTAANSASPPAETELQAM [FPR2]	6515 ± 60
METNSSLPTNISGGTPAVSAGYLFLDIITYLVFAVTFVLGVLGNGLVIWVAGFRMTHTVTTISYLNLAVADFCFTSTLPFFMVRKAMGGHWPFGWFLCKFVFTIVDINLFGSVFLIALIALDRCVCVLHPVWTQNHRTVSLAKKVIIGPWVMALLLTLPVIIRVTTVPGKTGTVACTFNFSPWTNDPKERINVAVAMLTVRGIIRFIIGFSAPMSIVAVSYGLIATKIHKQGLIKSSRPLRVLSFVAAAFFLCWSPYQVVALIATVRIRELLQGMYKEIGIAVDVTSALAFFNSCLNPMLYVFMGQDFRERLIHALPASLERALTEDSTQTSDTATNSTLPSAEVELQAK [FPR1]	6448 ± 46
METPNTTEDYDTTTEFDYGDATPCQKVNERAFGAQLLPPLYSLVFVIGLVGNILVVLVLVQYKRLKNMTSIYLLNLAISDLLFLFTLPFWIDYKLKDDWVFGDAMCKILSGFYYTGLYSEIFFIILLTIDRYLAIVHAVFALRARTVTFGVITSIIIWALAILASMPGLYFSKTQWEFTHHTCSLHFPHESLREWKLFQALKLNLFGLVLPLLVMIICYTGIIKILLRRPNEKKSKAVRLIFVIMIIFFLFWTPYNLTILISVFQDFLFTHECEQSRHLDLAVQVTEVIAYTHCCVNPVIYAFVGERFRKYLRQLFHRRVAVHLVKWLPFLSVDRLERVSSTSPSTGEHELSAGF [CCR1]	5560 ± 180
METTMGFMDDNATNTSTSFLSVLNPHGAHATSFPFNFSYSDYDMPLDEDEDVTNSRTFFAAKIVIGMALVGIMLVCGIGNFIFIAALVRYKKLRNLTNLLIANLAISDFLVAIVCCPFEMDYYVVRQLSWEHGHVLCTSVNYLRTVSLYVSTNALLAIAIDRYLAIVHPLRPRMKCQTATGLIALVWTVSILIAIPSAYFTTETVLVIVKSQEKIFCGQIWPVDQQLYYKSYFLFIFGIEFVGPVVTMTLCYARISRELWFKAVPGFQTEQIRKRLRCRRKTVLVLMCILTAYVLCWAPFYGFTIVRDFFPTVFVKEKHYLTAFYIVECIAMSNSMINTLCFVTVKNDTVKYFKKIMLLHWKASYNGGKSSADLDLKTIGMPATEEVDCIRLK [PROKR1]	2260 ± 380
MFGLFGLWRTFDSVVFYLTLIVGLGGPVGNGLVLWNLGFRIKKGPFSIYLLHLAAADFLFLSCRVGFSVAQAALGAQDTLYFVLTFLWFAVGLWLLAAFSVERCLSDLFPACYQGCRPRHASAVLCALVWTPTLPAVPLPANACGLLRNSACPLVCPRYHVASVTWFLVLARVAWTAGVVLFVWVTCCSTRPRPRLYGIVLGALLLLFFCGLPSVFYWSLQPLLNFLLPVFSPLATLLACVNSSSKPLIYSGLGRQPGKREPLRSVLRRALGEGAELGARGQSLPMGLL [MRGPRG]	115 ± 15
MFRQEQPLAEGSFAPMGSLQPDAGNASWNGTEAPGGGARATPYSLQVTLTLVCLAGLLMLLTVFGNVLVIIAVFTSRALKAPQNLFLVSLASADILVATLVIPFSLANEVMGYWYFGKAWCEIYLALDVLFCTSSIVHLCAISLDRYWSITQAIEYNLKRTPRRIKAIIITVWVISAVISFPPLISIEKKGGGGGPQPAEPRCEINDQKWYVISSCIGSFFAPCLIMILVYVRIYQIAKRRTRVPPSRRGPDAVAAPPGGTERRPNGLGPERSAGPGGAEAEPLPTQLNGAPGEPAPAGPRDTDALDLEESSSSDHAERPPGPRRPERGPRGKGKARASQVKPGDSLPRRGPGATGIGTPAAGPGEERVGAAKASRWRGRQNREKRFTFVLAVVIGVFVVCWFPFFFTYTLTAVGCSVPRTLFKFFFWFGYCNSSLNPVIYTIFNHDFRRAFKKILCRGDRKRIV [ADRA2A]	2600 ± 560
MFSPWKISMFLSVREDSVPTTASFSADMLNVTLQGPTLNGTFAQSKCPQVEWLGWLNTIQPPFLWVLFVLATLENIFVLSVFCLHKSSCTVAEIYLGNLAAADLILACGLPFWAITISNNFDWLFGETLCRVVNAIISMNLYSSICFLMLVSIDRYLALVKTMSMGRMRGVRWAKLYSLVIWGCTLLLSSPMLVFRTMKEYSDEGHNVTACVISYPSLIWEVFTNMLLNVVGFLLPLSVITFCTMQIMQVLRNNEMQKFKEIQTERRATVLVLVVLLLFIICWLPFQISTFLDTLHRLGILSSCQDERIIDVITQIASFMAYSNSCLNPLVYVIVGKRFRKKSWEVYQGVCQKGGCRSEPIQMENSMGTLRTSISVERQIHKLQDWAGSRQ [BDKRB2]	664 ± 47

Same assay, conditions: GPCR class: A (Olfactory)

Sequence	plasma membrane surface immunostaining intensity
METQNLTVVTEFILLGLTQSQDAQLLVFVLVLIFYLIILPGNFLIIFTIKSDPGLTAPLYFFLGNLALLDASYSFIVVPRMLVDFLSEKKVISYRSCITQLFFLHFLGAGEMFLLVVMAFDRYIAICRPLHYSTIMNPRACYALSLVLWLGGFIHSIVQVALILHLPFCGPNQLDNFFCDVPQVIKLACTNTFVVELLMVSNSGLLSLLCFLGLLASYAVILCRIREHSSEGKSKAISTCTTHIIIIFLMFGPAIFIYTCPFQAFPADKVVSLFHTVIFPLMNPVIYTLRNQEVKASMRKLLSQHMFC [OR4N5]	216 ± 66
MFLYLCFIFQRTCSEEMEEENATLLTEFVLTGFLHQPDCKIPLFLAFLVIYLITIMGNLGLIVLIWKDPHLHIPMYLFLGSLAFVDASLSSTVTPKMLINFLAKSKMISLSECMVQFFSLVTTVTTECFLLATMAYDRYVAICKALLYPVIMTNELCIQLLVLSFIGGLLHALIHEAFSFRLTFCNSNIIQHFYCDIIPLLKISCTDSSINFLMVFIFAGSVQVFTIGTILISYTIILFTILEKKSIKGIRKAVSTCGAHLLSVSLYYGPLTFKYLGSASPQADDQDMMESLFYTVIVPLLNPMIYSLRNKQVIASFTKMFKSNV [OR5H6]	123 ± 24
MGDNITSIREFLLLGFPVGPRIQMLLFGLFSLFYVFTLLGNGTILGLISLDSRLHAPMYFFLSHLAVVDIAYACNTVPRMLVNLLHPAKPISFAGRMMQTFLFSTFAVTECLLLVVMSYDLYVAICHPLRYLAIMTWRVCITLAVTSWTTGVLLSLIHLVLLLPLPFCRPQKIYHFFCEILAVLKLACADTHINENMVLAGAISGLVGPLSTIVVSYMCILCAILQIQSREVQRKAFRTCFSHLCVIGLVYGTAIIMYVGPRYGNPKEQKKYLLLFHSLFNPMLNPLICSLRNSEVKNTLKRVLGVERAL [OR2A4]	123 ± 3.7
MGDNITSITEFLLLGFPVGPRIQMLLFGLFSLFYVFTLLGNGTILGLISLDSRLHAPMYFFLSHLAVVDIAYACNTVPRMLVNLLHPAKPISFAGRMMQTFLFSTFAVTECLLLVVMSYDLYVAICHPLRYLAIMTWRVCITLAVTSWTTGVLLSLIHLVLLLPLPFCRPQKIYHFFCEILAVLKLACADTHINENMVLAGAISGLVGPLSTIVVSYMCILCAILQIQSREVQRKAFCTCFSHLCVIGLFYGTAIIMYVGPRYGNPKEQKKYLLLFHSLFNPMLNPLICSLRNSEVKNTLKRVLGVERAL [OR2A7]	117 ± 27
MGDWNNSDAVEPIFILRGFPGLEYVHSWLSILFCLAYLVAFMGNVTILSVIWIESSLHQPMYYFISILAVNDLGMSLSTLPTMLAVLWLDAPEIQASACYAQLFFIHTFTFLESSVLLAMAFDRFVAICHPLHYPTILTNSVIGKIGLACLLRSLGVVLPTPLLLRHYHYCHGNALSHAFCLHQDVLRLSCTDARTNSIYGLCVVIATLGVDSIFILLSYVLILNTVLDIASREEQLKALNTCVSHICVVLIFFVPVIGVSMVHRFGKHLSPIVHILMADIYLLLPPVLNPIVYSVRTKQIRLGILHKFVLRRRF [OR51L1]	274 ± 150
MGENQTMVTEFLLLGFLLGPRIQMLLFGLFSLFYIFTLLGNGAILGLISLDSRLHTPMYFFLSHLAVVDIAYTRNTVPQMLANLLHPAKPISFAGCMTQTFLCLSFGHSECLLLVLMSYDRYVAICHPLRYSVIMTWRVCITLAVTSWTCGSLLALAHVVLILRLPFSGPHEINHFFCEILSVLRLACADTWLNQVVIFAACVFFLVGPPSLVLVSYSHILAAILRIQSGEGRRKAFSTCSSHLCVVGLFFGSAIIMYMAPKSRHPEEQQKVFFLFYSFFNPTLNPLIYSLRNGEVKGALRRALGKESHS [OR2A1]	106 ± 11

Same assay, conditions: GPCR class: F

Sequence	plasma membrane surface immunostaining intensity
MEWGYLLEVTSLLAALALLQRSSGAAAASAKELACQEITVPLCKGIGYNYTYMPNQFNHDTQDEAGLEVHQFWPLVEIQCSPDLKFFLCSMYTPICLEDYKKPLPPCRSVCERAKAGCAPLMRQYGFAWPDRMRCDRLPEQGNPDTLCMDYNRTDLTTAAPSPPRRLPPPPPGEQPPSGSGHGRPPGARPPHRGGGRGGGGGDAAAPPARGGGGGGKARPPGGGAAPCEPGCQCRAPMVSVSSERHPLYNRVKTGQIANCALPCHNPFFSQDERAFTVFWIGLWSVLCFVSTFATVSTFLIDMERFKYPERPIIFLSACYLFVSVGYLVRLVAGHEKVACSGGAPGAGGAGGAGGAAAGAGAAGAGAGGPGGRGEYEELGAVEQHVRYETTGPALCTVVFLLVYFFGMASSIWWVILSLTWFLAAGMKWGNEAIAGYSQYFHLAAWLVPSVKSIAVLALSSVDGDPVAGICYVGNQSLDNLRGFVLAPLVIYLFIGTMFLLAGFVSLFRIRSVIKQQDGPTKTHKLEKLMIRLGLFTVLYTVPAAVVVACLFYEQHNRPRWEATHNCPCLRDLQPDQARRPDYAVFMLKYFMCLVVGITSGVWVWSGKTLESWRSLCTRCCWASKGAAVGGGAGATAAGGGGGPGGGGGGGPGGGGGPGGGGGSLYSDVSTGLTWRSGTASSVSYPKQMPLSQV [FZD8]	225 ± 23
